In this assay the target is T1, Pyrococcus furiosus RPP29 (Pyrococcus furiosus, UniProt Q8U007 1-127).
T1 sequence (looked up): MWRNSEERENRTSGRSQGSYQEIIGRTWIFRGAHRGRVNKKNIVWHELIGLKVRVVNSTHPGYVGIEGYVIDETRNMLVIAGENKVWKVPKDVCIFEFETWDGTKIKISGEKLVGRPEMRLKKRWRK
Nature of the assay: NMR titration.

From PMC2650222 (Biochemistry, 2008) come the findings set out here.

B1: Pyrococcus furiosus RPP21 (natural protein)
chain: AKYNEKKEKKRIAKERIDILFSLAERVFPYSPELAKRYVELALLVQQKAKVKIPRKWKRRYCKKCHAFLVPGINARVRLRQKRMPHIVVKCLECGHIMRYPYIKEIKKRRKEKMEYGGLVPR
modifications: 15N-labelled (uniform isotope labelling)
As to B1, the binding result is “binds”.
